Source: patent US20260209362A1 (VIB VZW, published 2026)
Positions count from the first letter of the chain named. Blank lines part the entries; values can stand above or below the binder they belong to.

Assays:
[1] = biological target: T1, biotinylated recombinant human IL-12Rβ2 (produced in-house) (human, UniProt Q99665 24-622, random biotinylated); test: BLI (Octet), P.E. VHH on immobilised biotinylated hIL-12RB2, 1:1 model
T1 construct: also called hIL-12RB2; hIL12RB2
T1 sequence: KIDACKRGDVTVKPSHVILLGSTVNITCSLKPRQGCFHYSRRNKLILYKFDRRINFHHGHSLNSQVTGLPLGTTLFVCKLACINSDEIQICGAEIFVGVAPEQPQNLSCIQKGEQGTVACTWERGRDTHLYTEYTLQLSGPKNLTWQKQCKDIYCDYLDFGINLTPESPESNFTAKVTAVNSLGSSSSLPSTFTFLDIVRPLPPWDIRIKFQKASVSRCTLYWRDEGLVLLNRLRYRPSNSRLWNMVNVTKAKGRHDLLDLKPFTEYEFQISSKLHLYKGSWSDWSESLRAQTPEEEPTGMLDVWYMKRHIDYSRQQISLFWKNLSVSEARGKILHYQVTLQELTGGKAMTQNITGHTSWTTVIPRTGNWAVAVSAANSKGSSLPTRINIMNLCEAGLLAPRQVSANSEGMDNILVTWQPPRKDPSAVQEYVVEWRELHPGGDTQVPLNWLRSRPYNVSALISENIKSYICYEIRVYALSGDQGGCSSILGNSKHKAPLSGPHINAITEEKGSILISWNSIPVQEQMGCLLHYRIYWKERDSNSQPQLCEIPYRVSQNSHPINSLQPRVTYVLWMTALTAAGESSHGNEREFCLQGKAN

[2] = biological target: T1, biotinylated recombinant human IL-12Rβ2 …; test: BLI (Octet), P.E. VHH on immobilised biotinylated hIL-12RB2
[3] = biological target: T2, human IL-12Rβ2 expressed on cells (human, UniProt Q99665 24-862); test: flow cytometry, P.E. VHH on HEK293T cells transiently expressing hIL-12RB2
T2 construct: HEK293T cells transiently transfected with a human IL-12Rβ2 plasmid (Genscript OHu21785); also called hIL-12RB2
T2 sequence: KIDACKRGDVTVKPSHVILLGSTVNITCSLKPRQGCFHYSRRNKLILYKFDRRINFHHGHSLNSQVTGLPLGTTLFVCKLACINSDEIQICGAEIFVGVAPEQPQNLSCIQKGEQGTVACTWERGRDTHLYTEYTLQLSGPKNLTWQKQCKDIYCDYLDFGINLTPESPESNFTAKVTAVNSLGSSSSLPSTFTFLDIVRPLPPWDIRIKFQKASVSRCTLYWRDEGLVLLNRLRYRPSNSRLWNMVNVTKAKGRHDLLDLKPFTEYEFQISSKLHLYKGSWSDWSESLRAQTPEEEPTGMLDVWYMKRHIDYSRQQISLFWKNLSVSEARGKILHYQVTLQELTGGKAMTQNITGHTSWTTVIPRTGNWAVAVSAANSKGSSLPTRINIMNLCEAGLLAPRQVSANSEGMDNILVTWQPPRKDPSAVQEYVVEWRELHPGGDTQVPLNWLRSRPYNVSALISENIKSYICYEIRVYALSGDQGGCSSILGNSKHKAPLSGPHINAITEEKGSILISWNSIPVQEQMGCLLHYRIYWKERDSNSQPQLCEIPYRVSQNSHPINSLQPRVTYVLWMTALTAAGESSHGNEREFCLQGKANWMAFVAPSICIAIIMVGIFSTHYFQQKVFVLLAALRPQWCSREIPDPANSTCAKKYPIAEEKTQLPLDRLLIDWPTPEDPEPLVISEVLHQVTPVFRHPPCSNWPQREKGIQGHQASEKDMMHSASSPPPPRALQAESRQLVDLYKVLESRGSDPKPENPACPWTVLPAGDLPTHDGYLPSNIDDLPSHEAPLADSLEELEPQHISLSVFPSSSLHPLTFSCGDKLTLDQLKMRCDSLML

[4] = biological target: T3, biotinylated recombinant mouse IL-12Rβ2 (produced in-house) (mouse, UniProt P97378 24-637, random biotinylated); test: ELISA, P.E. VHH on biotinylated mIL-12RB2
T3 construct: also called mIL-12RB2; mIL12RB2
T3 sequence: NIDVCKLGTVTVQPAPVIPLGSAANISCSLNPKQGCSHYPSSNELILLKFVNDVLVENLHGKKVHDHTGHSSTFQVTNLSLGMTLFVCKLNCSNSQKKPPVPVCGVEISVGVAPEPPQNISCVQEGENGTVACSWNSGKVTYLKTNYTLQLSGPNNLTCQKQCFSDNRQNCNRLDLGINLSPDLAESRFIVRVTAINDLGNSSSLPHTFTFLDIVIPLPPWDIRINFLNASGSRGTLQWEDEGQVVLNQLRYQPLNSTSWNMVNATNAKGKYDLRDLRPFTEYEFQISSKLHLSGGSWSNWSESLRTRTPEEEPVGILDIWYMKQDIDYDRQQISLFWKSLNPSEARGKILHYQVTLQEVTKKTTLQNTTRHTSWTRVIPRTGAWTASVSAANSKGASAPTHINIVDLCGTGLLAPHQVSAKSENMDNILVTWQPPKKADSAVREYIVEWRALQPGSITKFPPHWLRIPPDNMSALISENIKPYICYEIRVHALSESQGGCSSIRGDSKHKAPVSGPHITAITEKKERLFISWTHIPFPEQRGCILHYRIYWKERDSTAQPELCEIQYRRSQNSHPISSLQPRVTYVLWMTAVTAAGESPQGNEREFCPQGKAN

[5] = biological target: T1, biotinylated recombinant human IL-12Rβ2 …; test: ELISA, P.E. VHH on biotinylated hIL-12RB2, signal ratio to control well
[6] = biological target: T3, biotinylated recombinant mouse IL-12Rβ2 …; test: ELISA, P.E. VHH on biotinylated mIL-12RB2, signal ratio to control well
[7] = biological target: T4, biotinylated recombinant mouse IL-12Rβ2 (mouse, UniProt P97378 24-637, random biotinylated); test: BLI (Octet), periplasmic extract on biotinylated mIL-12Rβ2 on streptavidin tips, 1:1 model
T4 construct: Recombinant protein produced in-house, biotinylated; also called mIL-12RB2; mouse IL-12RB2
T4 sequence: T3 sequence

[8] = biological target: T5, biotinylated recombinant human IL-12Rβ2 (human, UniProt Q99665 24-622, random biotinylated); test: BLI (Octet), periplasmic extract on biotinylated hIL-12Rβ2 on streptavidin tips, 1:1 model
T5 construct: Recombinant protein produced in-house, biotinylated; also called hIL-12RB2; human IL-12RB2
T5 sequence: T1 sequence

[9] = biological target: T5, biotinylated recombinant human IL-12Rβ2; test: ELISA, periplasmic extract on biotinylated hIL-12Rβ2, signal over control wells
[10] = biological target: T4, biotinylated recombinant mouse IL-12Rβ2; test: ELISA, periplasmic extract on biotinylated mIL-12Rβ2, signal over control wells
[11] = biological target: T4, biotinylated recombinant mouse IL-12Rβ2; test: BLI (Octet), periplasmic extract on biotinylated mIL-12Rβ2 on streptavidin tips
[12] = biological target: T5, biotinylated recombinant human IL-12Rβ2; test: BLI (Octet), periplasmic extract on biotinylated hIL-12Rβ2 on streptavidin tips

B1: anti-IL-12Rβ2 VHH clone 3CRH25 (VHH, not shown: small tags and cut ends)
VHH: QVQLQESGGGLVQAGDSLRLSCTASGHTFSRYTTIGWFRQAPGKDREFVAAIRWSGDITDYADAVKGRFTISRDNVKNTVYLQMNSLNPEDTAVYYCARGYSEYGVLSRNRGLYAYWGQGTQVTVSS
notes: tested as periplasmic extract
koff [1]: 0.00205 s⁻¹ | Response [2]: 0.523 | dMFI [3]: 520 | binding result [4]: no binding | ELISA hIL12RB2/control [5]: 5.16 | ELISA mIL12RB2/control [6]: 1.04

B4: anti-IL-12Rβ2 VHH clone 2CRH82 (VHH, not shown: small tags and cut ends)
VHH: QVQLQESGGGLVQAGGSLRLSCAASARTESMYAMAWFRQAPGKEREIVAGIIQSGGTTYISDYMKGRFSIDRGNAENTVYLQMDSLKPEDTAVYSCAAKVSSGTPSDIQISQSRWYDHWGQGTQVTVSS
notes: tested as periplasmic extract
koff [1]: 0.00274 s⁻¹ | Response [2]: 0.426 | dMFI [3]: 744 | binding result [4]: no binding | ELISA hIL12RB2/control [5]: 16.1 | ELISA mIL12RB2/control [6]: 1.77

B5: anti-IL-12Rβ2 VHH clone 3CAHS41 (VHH, not shown: small tags and cut ends)
VHH: QVQLQESGGGLVQAGDSLRLSCAASGRTFDTYIVGWFRQAPGKEREFVSALSWSDDTTIRDDSLRGRFTISRDNAKNTVYLLMNSLKPEDTAVYYCAAKAKPPAATWSSYRNREWYDYWGQGTQVTVSS
notes: tested as periplasmic extract
koff [1]: 0.00441 s⁻¹ | Response [2]: 0.609 | dMFI [3]: 971 | binding result [4]: no binding | ELISA hIL12RB2/control [5]: 8.77 | ELISA mIL12RB2/control [6]: 1.35

B6: anti-IL-12Rβ2 VHH clone 3CAHS171 (VHH, not shown: small tags and cut ends)
VHH: QVQLQESGGGLVQPGGSLRLTCVASGFPFSTHAMSWVRQPPGKGREWISAINSGGDSTDYADSVMGRFTISRDNAKNTVYLQMNSLKSEDTAAYYCAKYEDCSDYDCSSRASWGQGTQVTVSS
notes: tested as periplasmic extract; also called 3CANS171
koff [1]: 0.00431 s⁻¹ | Response [2]: 0.195 | dMFI [3]: 1180 | binding result [4]: no binding | ELISA hIL12RB2/control [5]: 3.27 | ELISA mIL12RB2/control [6]: 0.96

B7: anti-IL-12Rβ2 VHH clone 3CAHS102 (VHH, not shown: small tags and cut ends)
VHH: QVQLQESGGGLVQPGGSLRLSCAASGSILRINLMGWYRQVPGKQRELVAEMSTGGSTTYVDSVEGRFTISRDNAKNTVYLQMNSLKPEDTAVYYCNAKAWQLGRLENDDWGQGTQVTVSS
notes: tested as periplasmic extract
koff [1]: 0.00267 s⁻¹ | Response [2]: 0.323 | dMFI [3]: 994 | binding result [4]: no binding | ELISA hIL12RB2/control [5]: 3.54 | ELISA mIL12RB2/control [6]: 1.02

B8: anti-IL-12Rβ2 VHH clone 21058 (VHH, not shown: small tags and cut ends)
VHH: QVQLQESGGGLVQAGGSLRLSCAASGRTFSNYAMAWFRQAPGTEREFVAGLSGSGGDTAFYDNSVMGRFTISRDSAKNTMWLQINNLKPEDTAVYYCAAATHVVVSYGLVRRRGTYDYWGQGTQVTVSS
notes: tested as periplasmic extract; also called 3CRHM49
koff [7]: 0.00583 s⁻¹ | koff [8]: 0.00619 s⁻¹ | ELISA binding hIL-12RB2/control [9]: 3.2 ratio | ELISA binding mIL-12RB2/control [10]: 41.2 ratio | Response [11]: 1.15 | Response [12]: 1.54

Next, values leading:

koff [7]: 0.00474 s⁻¹ | koff [8]: 0.00343 s⁻¹ | ELISA binding hIL-12RB2/control [9]: 3.52 ratio | ELISA binding mIL-12RB2/control [10]: 8 ratio | Response [11]: 0.816 | Response [12]: 1.32
B2: anti-IL-12Rβ2 VHH clone 21061 (VHH, not shown: small tags and cut ends)
VHH: QVQLQESGGGLVQPGGSLRLSCAASRRTFSKHAMAWFRQAPGKEREFVAVVRWSGIITYYADSVKGRFTISRDDAKNTVYLQMDSLKPEDTAVYYCAAGDYRGNGYYVPGMYDYWGQGTQVTVSS
notes: tested as periplasmic extract; also called 3CRHM85

koff [7]: 0.0059 s⁻¹ | koff [8]: 0.00486 s⁻¹ | ELISA binding hIL-12RB2/control [9]: 8.23 ratio | ELISA binding mIL-12RB2/control [10]: 20.2 ratio | Response [11]: 0.586 | Response [12]: 1.18
B3: anti-IL-12Rβ2 VHH clone 21055 (VHH, not shown: small tags and cut ends)
VHH: QVQLQESGGGLVQAGGSLRLSCAASGRTFSKSTMGWFRQTPGKEREFVAAITWTDTEVYANSVKDRFTISRDNAKNTFYLQMHSLKLEDTAVYYCAGDRYGSSRDSVFSSPTNYPYWGQGTQVTVSS
notes: tested as periplasmic extract; also called 3CRHM20

koff [7]: 0.00618 s⁻¹ | koff [8]: 0.00548 s⁻¹ | ELISA binding hIL-12RB2/control [9]: 3.61 ratio | ELISA binding mIL-12RB2/control [10]: 45 ratio | Response [11]: 0.699 | Response [12]: 1.14
B9: anti-IL-12Rβ2 VHH clone 21054 (VHH, not shown: small tags and cut ends)
VHH: B8 VHH with A14D, R112K
notes: tested as periplasmic extract; also called 3CRHM18

koff [7]: 0.00546 s⁻¹ | koff [8]: 0.00571 s⁻¹ | ELISA binding hIL-12RB2/control [9]: 3.58 ratio | ELISA binding mIL-12RB2/control [10]: 5.37 ratio | Response [11]: 1.01 | Response [12]: 1.38
B10: anti-IL-12Rβ2 VHH clone 21064 (VHH, not shown: small tags and cut ends)
VHH: B8 VHH with A14P
notes: tested as periplasmic extract; also called 3CRHM200

koff [7]: 0.00535 s⁻¹ | koff [8]: 0.00576 s⁻¹ | ELISA binding hIL-12RB2/control [9]: 4.84 ratio | ELISA binding mIL-12RB2/control [10]: 35.5 ratio | Response [11]: 1.04 | Response [12]: 1.36
B11: anti-IL-12Rβ2 VHH clone 21057 (VHH, not shown: small tags and cut ends)
VHH: B8 VHH with S106N
notes: tested as periplasmic extract; also called 3CRHM35

koff [7]: 0.00483 s⁻¹ | koff [8]: 0.00532 s⁻¹ | ELISA binding hIL-12RB2/control [9]: 3.11 ratio | ELISA binding mIL-12RB2/control [10]: 25.1 ratio | Response [11]: 0.957 | Response [12]: 1.19
B12: anti-IL-12Rβ2 VHH clone 21053 (VHH, not shown: small tags and cut ends)
VHH: B8 VHH with A59E, N63D, M66K, T70A, M80V, I84M, N86S, S106H
notes: tested as periplasmic extract; also called 3CRHM14
